Test: yeast display, Sf9 membrane polyspecificity reagent, FACS + sequencing; frameworks hold sequencing errors
Summary of the method: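 Galactose induction of a Saccharomyces cerevisiae BJ5465 synthetic nanobody display library ran 36–48 hours. The cells were then stained for 1 hour at 4 °C with 10% biotinylated, detergent-solubilized Sf9 membrane reagent, pulled down on streptavidin microbeads and FACS-sorted into low and high (top ~1%) gates on expression and reagent-binding fluorescence. Labels for polyreactivity follow the gate of origin.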

| Sequence | polyreactivity (PSR sort gate) |
| --- | --- |
| QVQLVESGGGLVQAGGSLRLSSAASGLNFQRNTMGWSRQAPVKERELVAAISRSGGSTYYADSVKGRFTISRDNAKNTVYLQMNSLKPEDTAVYYCAALIFRHRGKDDDYWGQGTQVTVSS | high polyreactivity |
| QVQLVESGGGLVQAGGSLRLSSAASGLTFLGYTMGWYRQAPGKARELVAAINYSGGSTYYADSVKGSFTISRDNAKNTVYLQMNSLKPEDPAVYYCAARRAVSGGVRMYYWGQGTQVTVSS | high polyreactivity |
| QVQLVESGGGLVQAGGSLRLSSAASGLTFQEYAMGWYRQAPGKERELVAAISWSGGSTYYADSVKGRFTISRDNAKNTVYLQMNSLKPEDTAVYYCAAEAYEEYITGWYAYDYWGQGTQVTVSS | high polyreactivity |
| QVQLVESGGGLVQAGGSLRLSSAASGLTFRYYALGWYRQAPGKERELVAAITRRGSTYYADSVKGRFTISRDNAKNTVYLQMNSLKPEDTAVYYCATVTGFHSSPLRDLDYWGQGTQVTVSS | high polyreactivity |
| QVQLVESGGGLVQAGGSLRLSSAASGNIFYGYAIGWYRQAPGKERELVARINWSGTRTYYADSVKGRFTISRDNAKNTVYLQMNSLKPEDTAVYYCAADRYRKYYRRYYYWGQGTQVTVSS | high polyreactivity |
| QVQLVESGGGLVQAGGSLRLSSAASGNIIKYYAMGCYRQEPGKERELVAAINWSGGSTYYADSVKGRFTISRDNAKNTVYLQMNSLKPEDTAVYYCNVFSSGYYLFDYWGQGTQVTVSS | high polyreactivity |
| QVQLVESGGGLVQAGGSLRLSSAASGNTFDSKAMGWYRQAPGKERELVAGISQGDGSTYADSVKGRFTISRDNAKNTVYFQMNSLKPEDTAVYYCAADRDYIMDYWGQGTQVTVSS | high polyreactivity |
| QVQLVESGGGLVQAGGSLRLSSAASGRIFAKYAMGWYRQAPGKERELVAAISWGGGSTYYADSVKGRFTISRDNAKNTVYLQMNSLKPEDTAVYYCAARIPKQRDVRGSGMNYWGQGTQVTVSS | high polyreactivity |
| QVQLVESGGGLVQAGGSLRLSSAASGRIFAVNAMGRYRQAPGKERELVASIRWSGGSTNYADSVKGRFTISRDNAKNTVYLQMNSLKPEDTAVYFCAAVIYLWGQGTQVTVSS | high polyreactivity |
| QVQLVESGGGLVQAGGSLRLSSAASGRIFGTYAMGWYRQAPGKERELVAAITSGGRTYYADSVKGRFTISRDNAKNTVYLQMNSLKPEDNAVYYCARPSGYRKYYYWGQGTQVTVSS | high polyreactivity |
| QVQLVESGGGLVQAGGSLRLSSAASGRIFIGNAMGWYRQAPGKERELVAAISKGGGSTYYADSVKGRFTISRDNAKNTVYLQMNSLKPEDTAVYYCNKLRYPLLPPKYYYWGQGTQVTVSS | high polyreactivity |
| QVQLVESGGGLVQAGGSLRLSSAASGRIFLLNAMGWYRQAPGKERELVADISFNGGSTYYADSVKGRFTISRDNAKNSVYLQMNSLKPEDTAVYYCAVGSFGVSAYSYYYWGQGTQVTVSS | low polyreactivity |
| QVQLVESGGGLVQAGGSLRLSSAASGRIFNGNAMGWSRQSPGKERELVAAISSGGRTYYADSVKGRFTISRDNAKNTVYLQMNSLKPEDTEVYYCAARVILTTYSRNYYYWGQGTQVTVSS | high polyreactivity |
| QVQLVESGGGLVQAGGSLRLSSAASGRIFPGYAMGWYRQAPGKEREFVAAITRSGGRTYYADSVKGRFTISRDNAKNTVYVQMNSLKPEDTAVYYCNRVYEYWSEYDYWGQGTQVTVSS | high polyreactivity |
| QVQLVESGGGLVQAGGSLRLSSAASGRIFPRYGMGWYRQAPGKERELVAAISIGGSTHYADSVKGRFTISRDNAKNTVYLQMNSLKPEDTAVYYCNKDIYVYWLFRLGMGYWGQGTQVTVSS | low polyreactivity |
| QVQLVESGGGLVQAGGSLRLSSAASGRIFRPYAMGWYRPAPGKERELVAIRKSTGSTYYADSVKGRFTISRDNAKITVYLQMNSLKPEHTAVYYCAAPRDWDAGDYWGQGTQVTVSS | high polyreactivity |
| QVQLVESGGGLVQAGGSLRLSSAASGRIFSRYTMGWYRQAPGKERELVAAISWIGTRTYYADSVKGRFTISRDNAKNTVYLQMNSLKPEDTAVYYCNAVFGGYYGYVSNYKFDYWGHGTQVTVSS | high polyreactivity |
| QVQLVESGGGLVQAGGSLRLSSAASGRIFWPNTIGWYRQAPGKERELVAAISWSGGSTYYADSVKGRFTISRDNAKNTVYLQMNSLIPEDTAVYYFNARYPNTRKYDYWGQGTQVTVSS | high polyreactivity |
| QVQLVESGGGLVQAGGSLRLSSAASGRIFYLYAMGWYRQAPVKERELVAGITSGGRTNYADSVKGRFTISRDNAKNTFFLQMNSLKPEDTAVYYCAAYYWGLYSGYYWRQGTQVTVSS | high polyreactivity |
| QVQLVESGGGLVQAGGSLRLSSAASGRIFYPYTIGWYRQAPGKERELVAAISSTGRTNYADSVKGRFTISRDNAKNTVYLQMNSVKPEDTAVYYCAKGFRKYSLGPPGNDYWGQGTQVTVSS | high polyreactivity |

| Sequence | polyreactivity (PSR sort gate) |
| --- | --- |
| QVQLVESGGGLVQAGGSLRLSSAASGRIFYRNAMGWYRQAPGKEREMVAAINWSGGSTYYADSVKGRFTISRDNAKNSVYLQMNSLKPEDTAVYYCAAKPGKTPLTGDRGPYDTGYGYWGQGTQVTVSS | low polyreactivity |
| QVQLVESGGGLVQAGGSLRLSSAASGRIFYRNAMGWYRQAPGKEREMVAAIRGSGGRTYYADSVKGRFTISRDNAKYTVYLQMISLKPEDTAVYYCAAYGYYVEHPRGLSGPYDDDYWGQGTQVTVSS | low polyreactivity |
| QVQLVESGGGLVQAGGSLRLSSAASGRIFYSNAMGWYRQAPGKERELVAAITRSGGGTYYADSVKGRFTISSDNAKNTVYLLMNSLKPEDTAVYYCAAIYNWWGLGSLYYGSNYWGQGTQVTVSS | high polyreactivity |
| QVQLVESGGGLVQAGGSLRLSSAASGRILPVNTMGWYRQAPGKERELVAVITRSGGRTYYADSVKGRFTISRDNAKNTVYLQMNSLKPEDTAVYYCAADVGFRWYRYTAGPLEYDYWGQGTQVTVSS | high polyreactivity |
| QVQLVESGGGLVQAGGSLRLSSAASGRTFAVNAMGSYRQAPGKERELLAAISQRAGRTYYADSVKGRFTISRDNEKNTVYLQMNSLKPEDTAVYYCNVVGFRSRVGSRGYWGLGTQVTVSS | high polyreactivity |
| QVQLVESGGGLVQAGGSLRLSSAASGRTFIVYAMGWYRQQPGKERELVARISSGSRTSYADSVKGRFTISRDNAKNTVYLQMNSLKPEDTAVYYCAKSRVIKYEFDYWGQGTQVTVSS | low polyreactivity |
| QVQLVESGGGLVQAGGSLRLSSAASGRTFPIYAMGWYRQAPGKERELVATITLNDGNTYYADSVKGRFTISRDNAKNTVYLQMNSLKPEDTAVYYCAAKGGWPWHYHYQKNSEYDYWGQGTQVTVSS | low polyreactivity |
| QVQLVESGGGLVQAGGSLRLSSAASGRTFRYYTMGWYRQAPGKEREFVAAISSTGGTYYADSVKGRFTISRDNAKNNVYLQMNSLKPEVTAVYYCAATFIQVVVNVELYDYDYWGQGTQVTVSS | low polyreactivity |
| QVQLVESGGGLVQAGGSLRLSSAASGRTFYRYVMGWYRQAPGKERELVADITRSGGSTYYADSVKGRFTISRDNAKNTVYLQMNSLKPEDTAVYYCAAEFLSSVHVRGMDYWGQGTQVTVSS | high polyreactivity |
| QVQLVESGGGLVQAGGSLRLSSAASGRTTKVYAMGWYRQGPGKPRELVARITSSGVRRYYADSVKGRFTISRDNAKNTVYLHMNSLKPEDTAVYYCGKDARALWLHSGIYDYSGQGTQVTVSS | low polyreactivity |
| QVQLVESGGGLVQAGGSLRLSSAASGSIFARYAMGWYRPAPVKERELVAAISGRGGSTYYADSVKGRFTISRDNAKNTVYLQMNSLKPEDTAVYYCNAVGHTSIRRALDILDYWGQGPQVTVSS | high polyreactivity |
| QVQLVESGGGLVQAGGSLRLSSAASGSIFFRNAMGWYRKAPGKERELVAAISRSGGNTYYADSVKGRFTISRDNAKNTVYLQMNSLKPEDTAVYYCAKYRTLYWYDYWGQGTQVTVSS | high polyreactivity |
| QVQLVESGGGLVQAGGSLRLSSAASGSIFIPYAMGWYRQAPGKERELVAAISSSGSTYYADSVKGRFTISRDNAKNTVYFQMNSLKPEDTAVYYCAAAWHTAYWDGSDTLGGGYWGQGTQVTVSS | low polyreactivity |
| QVQLVESGGGLVQAGGSLRLSSAASGSIFTYYAMGWYRQAPGKERELLASISRHGGSTYYADSVKGRFTISRDNAKNTVYLQMNSLKPEDTAVYYCNARGWHTKVVSPRYYWGQGTQVTVSS | high polyreactivity |
| QVQLVESGGGLVQAGGSLRLSSAASGSIFVLYAMGWYRQAPGKERELVAAIDVGGGSTYYADSVKGRFTISRDNAKNTVYLQMNSLKPEDTAVYYCAAELYYTYRWYDYWGQGTQVTVSS | high polyreactivity |
| QVQLVESGGGLVQAGGSLRLSSAASGSILSYNAMGWYRQAPGKERELVASITGTGRSTRYADSVKGRFTISRDNAKNSVYLQMNSLKPEDTAVYYCATAAWWYYRIYHEFGYWGQGTQVTVSS | high polyreactivity |
| QVQLVESGGGLVQAGGSLRLSSAASGSNFWYYAMGWYRQSPGKERELVAAISAISGTTYYADSEKGRFTISRDNAKNTVYLQMNSLKPEDTAVYYCNKDASWWTDRSYDYWGQGTQVTVSS | low polyreactivity |
| QVQLVESGGGLVQAGGSLRLSSAASGSTFAFNAMGWYRHAHGKEREFVARITWSDGSTYYADSVKGRFTISRDNAKNTVYLQMNCLKPEDTAVYYCARDPTEQAIARWTYDYWGQGTQVTVSS | low polyreactivity |
| QVQLVESGGGLVQAGGSLRLSSAASGSTFEAYTMGWYRPAPGKERELVAAISRSGGSTYYADSVKGRFTISRDNAKNTVYLQMNSLKPEDTAVYYCAASRYIGYNYWGQGTQVNVSS | high polyreactivity |
| QVQLVESGGGLVQAGGSLRLSSAASGSTFGIYAMGWYRQAPGKERELVAAISSGGSTNYADSVKGRFTISRDNAKNTVYLQMNSLKPEDTAVYYCAVESVYEYGGYVDSAFDYWGQGTQVTVSS | low polyreactivity |

— the nanobody polyreactivity screen of Harvey et al. (2022)
